Experimental data published in patent US20230151091A1 (NEW YORK UNIVERSITY, published 2023).
Blank lines part the entries; values can stand above or below the binder they belong to.

What was measured:
human MuSK [1] = molecular target: T1, human MuSK (human, UniProt O15146 24-495); experiment: Biacore T200, MuSK on chip (200RU), 22.2 nM Fab, dissociation pH 7.4
T1 construct: Recombinant protein coated on ELISA plates (R&D Systems cat. 10189-MK) or on the Biacore chip; also called human muscle-specific tyrosine protein kinase; full length human MuSK
T1 sequence: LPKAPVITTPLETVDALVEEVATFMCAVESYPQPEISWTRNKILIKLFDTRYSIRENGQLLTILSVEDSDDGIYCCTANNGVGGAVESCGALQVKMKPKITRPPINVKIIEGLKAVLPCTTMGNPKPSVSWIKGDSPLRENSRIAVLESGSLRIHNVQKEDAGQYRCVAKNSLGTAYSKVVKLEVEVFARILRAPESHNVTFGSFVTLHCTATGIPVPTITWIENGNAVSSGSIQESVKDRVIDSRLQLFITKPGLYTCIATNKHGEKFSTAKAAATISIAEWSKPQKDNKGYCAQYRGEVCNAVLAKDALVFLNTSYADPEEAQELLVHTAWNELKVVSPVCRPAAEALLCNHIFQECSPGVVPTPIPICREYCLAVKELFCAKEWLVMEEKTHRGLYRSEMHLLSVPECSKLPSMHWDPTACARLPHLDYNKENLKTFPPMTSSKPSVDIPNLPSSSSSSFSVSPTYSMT
Experimental: (§1) In order to study pH dependent binding of the antibodies described herein to MuSK, a Biacore T200 was used. Briefly, a CMS chip was coated with human and mouse MuSK (200RU) and 22.2 nM of Fab was applied and kinetic parameters calculated. Association was done at pH7.4, dissociation was done at pH 7.4 and also at pH 5.5. The following Fabs were tested, X2, X2m4, X3, X9, X17, 3B2 and 3B2g2m1 (Table 10 and FIG. 23). […] Binding affinity at pH 5.5 is very low, resulting in a rapid dissociation at endosomal pH allowing 3B2g2m1 to recycle.

mouse MuSK [2] = molecular target: T2, mouse MuSK (mouse, UniProt Q61006 22-494, limits assumed); experiment: as above
T2 construct: Coated on ELISA plates or on the Biacore chip; also called full length mouse MuSK; mouse MuSK (in house produced in HEK293 cells)
T2 sequence (looked up): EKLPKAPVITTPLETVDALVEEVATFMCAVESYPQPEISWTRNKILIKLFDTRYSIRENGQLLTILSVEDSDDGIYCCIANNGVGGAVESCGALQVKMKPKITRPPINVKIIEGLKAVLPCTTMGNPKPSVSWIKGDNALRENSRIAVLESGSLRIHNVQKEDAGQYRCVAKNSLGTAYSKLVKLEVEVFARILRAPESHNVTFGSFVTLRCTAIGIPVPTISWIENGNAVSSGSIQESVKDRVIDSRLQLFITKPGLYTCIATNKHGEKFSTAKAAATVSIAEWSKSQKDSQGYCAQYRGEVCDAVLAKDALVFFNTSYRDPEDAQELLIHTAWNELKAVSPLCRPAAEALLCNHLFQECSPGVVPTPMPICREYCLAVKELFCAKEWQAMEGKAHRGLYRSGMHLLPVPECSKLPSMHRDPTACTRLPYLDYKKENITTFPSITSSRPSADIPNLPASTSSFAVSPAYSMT
Experimental: as §1

human MuSK [3] = molecular target: T1, human MuSK; experiment: Biacore T200, off rate at pH 5.5 against pH 7.4
Experimental: as §1

mouse MuSK [4] = molecular target: T2, mouse MuSK; experiment: Biacore T200, off rate at pH 5.5 against pH 7.4
Experimental: as §1

human MuSK [5] = molecular target: T1, human MuSK; experiment: Biacore T200, MuSK on chip (200RU), 22.2 nM Fab, dissociation pH 5.5
Experimental: as §1

mouse MuSK [6] = molecular target: T2, mouse MuSK; experiment: as above
Experimental: as §1

human MuSK [7] = molecular target: T1, human MuSK; experiment: Biacore, MuSK on chip (200RU), Fab dilution series
Excerpt: (§2) For affinity determination, a CMS chip was coated with either human or mouse MuSK (200RU) and a dilution series of the antibodies (mAbs and Fabs) was applied in order to be able to calculate the affinity.

mouse MuSK [8] = molecular target: T2, mouse MuSK; experiment: Biacore, MuSK on chip (200RU), Fab dilution series
Excerpt: as §2

human MuSK [9] = molecular target: T1, human MuSK; experiment: ELISA, plate coated with human MuSK at 0.2 µg/ml, dilution series of mAb, goat anti human Fc-HRP and TMB, OD 620 nm (8 min)
Experimental: An ELISA plate was coated with human MuSK (R&D Systems, cat. 10189-MK) or mouse MuSK (in house produced in HEK293 cells) at 0.2 μg/ml. After washing and blocking the plate, a dilution series of the anti-MuSK antibodies was applied and allowed to bind for 2 hours at room temperature. […] OD at 620 nm was measured with a 96 well ELISA plate reader.

[10] = molecular target: T3, mFz: Fz domain and C-terminal flanking sequence of mouse MuSK (D307 to T494) with C-terminal Avi- and … (mouse, UniProt Q61006 307-494, limits assumed, biotinylated in vitro using the BirA enzyme); experiment: bead-binding titration, Fab format: antigen immobilized on streptavidin beads, MFI by flow cytometry, curve is the 1:1 fit
T3 construct: also called mouse Fz; not shown: Avi- and His6-tags
T3 sequence (looked up): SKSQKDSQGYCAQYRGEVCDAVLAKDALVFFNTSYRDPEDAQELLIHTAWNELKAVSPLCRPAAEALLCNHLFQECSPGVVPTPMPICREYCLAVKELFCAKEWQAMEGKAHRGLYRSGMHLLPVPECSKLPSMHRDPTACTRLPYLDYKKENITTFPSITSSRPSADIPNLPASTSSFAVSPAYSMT

[11] = molecular target: T4, hFz: Fz domain and C-terminal flanking sequence of human MuSK (K314-T495) with C-terminal Avi- and His6-tags (human, UniProt O15146 314-495, biotinylated in vitro using the BirA enzyme); experiment: as above
T4 construct: also called human Fz; not shown: Avi- and His6-tags
T4 sequence: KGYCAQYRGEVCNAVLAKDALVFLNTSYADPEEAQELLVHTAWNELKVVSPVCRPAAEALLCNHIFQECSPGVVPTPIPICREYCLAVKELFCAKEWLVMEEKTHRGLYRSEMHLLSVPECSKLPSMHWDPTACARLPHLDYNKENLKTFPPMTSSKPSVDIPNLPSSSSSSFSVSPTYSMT

[12] = molecular target: T5, hECD: full-length extracellular region of human MuSK (E22 to T495) with C-terminal Avi- and His6-tags (human, UniProt O15146 22-495, biotinylated in vitro using the BirA enzyme); experiment: as above
T5 construct: also called human ECD; not shown: Avi- and His6-tags
T5 sequence: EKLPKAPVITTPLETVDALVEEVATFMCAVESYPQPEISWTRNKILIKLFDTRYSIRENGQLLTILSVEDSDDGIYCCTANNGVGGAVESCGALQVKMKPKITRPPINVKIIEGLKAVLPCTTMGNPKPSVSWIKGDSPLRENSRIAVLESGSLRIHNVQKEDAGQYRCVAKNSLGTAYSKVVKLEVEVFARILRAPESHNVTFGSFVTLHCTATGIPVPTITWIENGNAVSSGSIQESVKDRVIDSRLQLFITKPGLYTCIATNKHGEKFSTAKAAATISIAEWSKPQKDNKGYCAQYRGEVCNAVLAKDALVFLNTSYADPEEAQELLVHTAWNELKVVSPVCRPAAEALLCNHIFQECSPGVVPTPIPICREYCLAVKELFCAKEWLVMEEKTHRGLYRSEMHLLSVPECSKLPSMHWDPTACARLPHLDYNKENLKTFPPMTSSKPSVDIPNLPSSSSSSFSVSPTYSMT

[13] = molecular target: T6, mECD: full-length extracellular region of mouse MuSK (E22 to T494) with C-terminal Avi- and His6-tags (mouse, UniProt Q61006 22-494, biotinylated in vitro using the BirA enzyme); experiment: as above
T6 construct: range 22-494; also called mouse ECD; not shown: Avi- and His6-tags
T6 sequence (looked up): T2 sequence (looked up)

[14] = molecular target: T3, mFz: Fz domain and C-terminal flanking …; experiment: bead-binding assay, Fab format: biotinylated antigen on streptavidin beads, flow cytometry, 1:1 fit; average ± s.d., n=3
[15] = molecular target: T4, hFz: Fz domain and C-terminal flanking …; experiment: as above
[16] = molecular target: T5, hECD: full-length extracellular region …; experiment: as above
[17] = molecular target: T6, mECD: full-length extracellular region …; experiment: as above

EC50 (read off the curve) (human MuSK [9]): ~0.04 µg/mL
B2: 14D10 (antibody, V domains shown)
VH: ELQLVESGGGLVQPGGSLRLSCAASGFTFDDYGMSWVRQAPGKGLEWVSAIPWNGGSTYYKESVKGRFTISRDNAKKTLYLQMNSLKSEDTAVYYCAKRSGRIAFGALDAWGQGTLVTVSS
VL: QAVVTQEPSLSVSPGGTVTLTCGLSSGSVTSSNYPDWYQQTPGQAPRTLIYTTNSRHSGVPSRFSGSISGNKAALTITGAQPEDEADYYCALYMGGGSNVYVFG
notes: human IgG1 with the LALA mutations (L234A, L235A); produced in HEK293 cells

EC50 (read off the curve) [10]: ~1 nM | EC50 (read off the curve) [11]: ~0.4 nM | EC50 (read off the curve) [12]: ~0.5 nM | EC50 (read off the curve) [13]: ~1 nM | Kd [14]: 1.09 nM | Kd [15]: 0.39 nM | Kd [16]: 0.55 nM | Kd [17]: 1.34 nM
B4: X1 Fab (Fab, V domains shown)
VH: EVQLVESGGGLVQPGGSLRLSCAASGFTFSSSSIHWVRQAPGKGLEWVASISSSSGSTSYADSVKGRFTISADTSKNTAYLQMNSLRAEDTAVYYCARKYWSQYYWAHYYGGLDYWGQGTLVTVSS
VL: DIQMTQSPSSLSASVGDRVTITCRASQSVSSAVAWYQQKPGKAPKLLIYSASSLYSGVPSRFSGSRSGTDFTLTISSLQPEDFATYYCQQSSSSLITFGQGTKVEIK
notes: m52 is the same Fab tetramerized with streptavidin; also called Fab Clone X1 (monovalent Fab format)

The remaining lines, values behind:

B1: 3B2 Fab (Fab, V domains shown)
VH: B2 VH
VL: QAVVTQEPSLSVSPGGTVTLTCGLSSGSVTSSNYPDWYQQTPGQAPRGLIYSTDSRHSGVPSRFSGSISGNKAALTITGAQSEDEADYYCGLYMYSGSKNYVFGGGTKLTVL
notes: Fab format; also called Fab 3B2
koff (human MuSK [1]): 0.00388 s⁻¹ | koff (mouse MuSK [2]): 0.00347 s⁻¹ | Ratio pH 5.5/7.4 of off rate (human MuSK [3]): 5.8 | Ratio pH 5.5/7.4 of off rate (mouse MuSK [4]): 31.5 | koff (human MuSK [5]): 0.0224 s⁻¹ | koff (mouse MuSK [6]): 0.109 s⁻¹ | Kd (human MuSK [7]): 3.18 nM | Kd (mouse MuSK [8]): 1.52 nM

B3: 17H10 (antibody, V domains shown)
VH: QVQVQESGPGLVKPSQTLSLTCTVSGGSITARYYSWSWIRQPPGKGLEWMGVIAYDGSTYYSPSLKSRTSISRDTSKNQFSLHLSSVTPDDTAVYYCARGSSRVAAAFDSWGQGTQVTVSS
VL: SYELTQSPSVSVALRQTAKITCGGNRIGGKSVQWYQQKPGQAPMLVIYADSRRPSGIPERFTGSNSGNTATLTITGAQAEDEADYYCHVWGSTASADFGGGTHLTVL
notes: as for B2
EC50 (read off the curve) (human MuSK [9]): ~0.02 µg/mL
